According to the supplement of paper PMC7877785:
± gives the uncertainty stated by the source.

Assay: self-splicing fitness, log relative to wild type (ln ratio); higher = more splicing; Tetrahymena group I intron in knt gene, E. coli kanamycin selection, DiMSum; sequences stand for … in CUCUCU…GGAGGGAAAAGUUAUCAGGCAUGCACCUGGUAGCUAGUCUUUAAACCAAUAGAUUGCAUCGGUUUAAAAGGCAAGACCGUCAAAUUGCGGGAAAGGGGUCAACAGCCGUUCAGUACCAAGUCUCAGGGGAAACUUUGAGAUGGCCUUGCAAAGGGUAUGGUAAUAAGCUGACGGACAUGGUCCUAACCACGCAGCCAAGUCCUAAGUCAACAGAUCUUCUGUUGAUAUGGAUGCAGUUCACAGACUAAAUGUCGGUCGGGGAAGAUGUAUUCUUCUCAUAAGAUAUAGUCGGACCUCUCCUUAAUGGGAGCUAGCGGAUGAAGUGAUGCAACACUGGAGCCGCUGGGAACUAAUUUGUAUGCGAAAGUAUAUUGAUUAGUUUUGGAGUACUCGUGGUCG
Procedure, shortened: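 Pooled colonies went to amplicon sequencing on an Illumina HiSeq 2500 after six replicate transformations. The plates were LB agar with 100 μg/mL carbenicillin, 50 μM IPTG and 0.2% rhamnose, with or without 25 μg/mL kanamycin, incubated overnight at 37°C or 30°C. The E. coli BL21(DE3) library had all eight P1ex-region intron nucleotides randomised, the intron placed in the knt kanamycin-resistance gene on pET-22b(+). DiMSum fitness is the error-weighted combination of replicate fold changes, kanamycin against none, normalised to wild type.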

| Sequence | self-splicing fitness (ln) (30 °C) | self-splicing fitness (ln) (37 °C) |
| --- | --- | --- |
| CGCAAGCAAUAUUACGCGUU | -3.9 ± 0.15 | -2.86 ± 0.15 |
| CGCAAGCAAUAUUACGCUGC | -2.59 ± 0.33 | -2.41 ± 0.3 |
| CGCAAGCAAUAUUACGCUGU | -3.81 ± 0.24 | -1.48 ± 0.16 |
| CGCAAGCAAUAUUACGGCCC | -1.17 ± 0.24 | -1.23 ± 0.26 |
| CGCAAGCAAUAUUACGGCUA | -1.15 ± 0.063 | -0.556 ± 0.076 |
| CGCAAGCAAUAUUACGGGAC | -3.18 ± 0.31 | -2.52 ± 0.29 |
| CGCAAGCAAUAUUACGGGCC | -1.55 ± 0.12 | -1.02 ± 0.17 |
| CGCAAGCAAUAUUACGGGGC | -3.65 ± 0.17 | -2.6 ± 0.15 |
| CGCAAGCAAUAUUACGGGGG | -3.39 ± 0.18 | -1.12 ± 0.13 |
| CGCAAGCAAUAUUACGGUCG | -2.32 ± 0.11 | -0.33 ± 0.1 |
| CGCAAGCAAUAUUACGGUGC | -4.9 ± 0.29 | -2.53 ± 0.23 |
| CGCAAGCAAUAUUACGUAAU | -3.89 ± 0.2 | -2.14 ± 0.17 |
| CGCAAGCAAUAUUACGUGAG | -2.69 ± 0.13 | -2.15 ± 0.13 |
| CGCAAGCAAUAUUACGUGCA | -0.273 ± 0.064 | -0.135 ± 0.075 |
| CGCAAGCAAUAUUACGUGUU | -3.48 ± 0.11 | -2.9 ± 0.14 |
| CGCAAGCAAUAUUACGUUUC | -2.92 ± 0.16 | -2.21 ± 0.23 |
| CGCCAGCAAUAUUACGAAAU | -4.66 ± 0.37 | -2.69 ± 0.24 |
| CGCCAGCAAUAUUACGAACC | -2.23 ± 0.22 | -2.02 ± 0.43 |
| CGCCAGCAAUAUUACGAAGA | -2.64 ± 0.36 | -2.2 ± 0.24 |
| CGCCAGCAAUAUUACGACCU | -3.15 ± 0.36 | -2.15 ± 0.28 |
| CGCCAGCAAUAUUACGAGCU | -3.06 ± 0.097 | -1.59 ± 0.094 |
| CGCCAGCAAUAUUACGAUGC | -3.51 ± 0.38 | -1.75 ± 0.2 |
| CGCCAGCAAUAUUACGAUGU | -2.9 ± 0.12 | -1.25 ± 0.1 |
| CGCCAGCAAUAUUACGCCGA | -2.87 ± 0.23 | -1.65 ± 0.19 |
| CGCCAGCAAUAUUACGCGAU | -3.87 ± 0.2 | -2.22 ± 0.17 |

| Sequence | self-splicing fitness (ln) (30 °C) | self-splicing fitness (ln) (37 °C) |
| --- | --- | --- |
| CGCCAGCAAUAUUACGCGGA | -2.91 ± 0.2 | -1.99 ± 0.16 |
| CGCCAGCAAUAUUACGCGGC | -4.11 ± 0.47 | -3.03 ± 0.27 |
| CGCCAGCAAUAUUACGCUGU | -3.38 ± 0.29 | -2.69 ± 0.39 |
| CGCCAGCAAUAUUACGCUUG | -2.95 ± 0.13 | -1.88 ± 0.15 |
| CGCCAGCAAUAUUACGGAGC | -3.06 ± 0.24 | -2.82 ± 0.48 |
| CGCCAGCAAUAUUACGGCAU | -1.25 ± 0.081 | -0.458 ± 0.088 |
| CGCCAGCAAUAUUACGGCCU | -0.959 ± 0.061 | 0.409 ± 0.072 |
| CGCCAGCAAUAUUACGGCGC | -3 ± 0.17 | -2.23 ± 0.22 |
| CGCCAGCAAUAUUACGGCUC | -0.72 ± 0.22 | -0.0823 ± 0.23 |
| CGCCAGCAAUAUUACGGUCU | -0.989 ± 0.061 | -0.324 ± 0.076 |
| CGCCAGCAAUAUUACGUACC | -3.78 ± 0.29 | -2.74 ± 0.3 |
| CGCCAGCAAUAUUACGUCAG | -0.444 ± 0.073 | 0.203 ± 0.095 |
| CGCCAGCAAUAUUACGUCUA | – | -2.52 ± 0.3 |
| CGCCAGCAAUAUUACGUGGA | -3.6 ± 0.2 | -2 ± 0.15 |
| CGCCAGCAAUAUUACGUGGC | -3.72 ± 0.2 | -2.5 ± 0.2 |
| CGCGAGCAAUAUUACGAAAU | – | -2.57 ± 0.27 |
| CGCGAGCAAUAUUACGAAGU | -3.36 ± 0.21 | -2.57 ± 0.31 |
| CGCGAGCAAUAUUACGACGU | -2.39 ± 0.33 | -1.08 ± 0.21 |
| CGCGAGCAAUAUUACGAGGG | -3.3 ± 0.22 | -2.71 ± 0.22 |
| CGCGAGCAAUAUUACGAUCG | -2.08 ± 0.11 | -2.66 ± 0.29 |
| CGCGAGCAAUAUUACGCACG | – | -2.14 ± 0.46 |
| CGCGAGCAAUAUUACGCUAC | – | -2.08 ± 0.25 |
| CGCGAGCAAUAUUACGGCCA | – | -1.68 ± 0.39 |
| CGCGAGCAAUAUUACGGGCC | -2.71 ± 0.27 | – |
